Results on 1 molecule are retold here after paper PMC10382582 (Cell Discovery, 2023).

The assay deals with biotinylated SARS-CoV-2 prototype RBD (SARS-CoV-2 (prototype), UniProt P0DTC2, biotin (biotinylated; site not stated)). Kind of assay: BLI. Particulars: both partners purified.

B1: pan-sarbecovirus mAb S2H97 (antibody, V domains shown)
VH: QVRLVQSGAEVKKSGESLKISCKGSGYSFTSYWIGWVRQMPGKGLEWMGIIYPGDSDTRYSPSFQGQVTISADKSISTVYLQWSSLKASDTAMYYCARQWSHYTYDYYYWGQGTLVTISS
VL: QSVLTQPASVSGSPGQSITISCTGISSDVGGYNSVSWYQQHPGKAPKLMIYDVTNRPSGVSNRFSGSKSGNTASLTISGLQAEDEADYYCSSYTSSSTPPYVFGTGTKVSVL
Turning to B1, the binding result was “binds”.
